Test results reported in US20130260458A1, “METHOD OF INDUCING DIFFERENTIATION OF HUMAN PLURIPOTENT STEM CELL INTO HEPATIC PROGENITOR CELL” (NATIONAL UNIVERSITY CORPORATION CHIBA UNIVERSITY, priority 2012, published 2013).
“Also recorded” adds a separate entry of the source.

Columns and labels:
[1] = tested on: Human iPS cells (201B7); assay: Expression of transcription factors in iPS cells cultured with single growth-promoting agents (RT-PCR, electrophoresis); format: cell-based; details: iPS cells in iPSm(−) medium with the growth-promoting agent added; PCR and electrophoresis, FIG. 2
Description: Reverse transcriptase (Life Technologies Japan Ltd.) was used to synthesize cDNAs of iPS cells, fetal hepatic cells and adult hepatic cells from 3 μg of RNA. The cDNAs were subjected to polymerase chain reaction (PCR) using the following primers to GATA4, FOXA2, HEX, C/EBPα and C/EBPβ, respectively, and to electrophoresis using 2% low-melting agarose (Lonza) and 1×TAE, for investigations on the expression of GATA4, FOXA2, HEX, C/EBPα and C/EBNβ in the iPS cells, fetal hepatic cells and adult hepatic cells.
After electrophoresis, the 2% low-melting agarose was irradiated with ultraviolet rays at 254 nm from a UV transilluminator (UVP LLC, NLMS-20E), and a Polaroid photograph (FUJIFILM Corporation, FP-3000B) thereof was taken with a gel camera (Funakoshi DS-300) to analyze an electrophoretic pattern.
PCR cycles performed included 30 cycles of thermal denaturation: 1 minute at 94° C.; annealing: 1 minute and elongation reaction: 1 minute at 72° C.
Human iPS cells (201B7, RIKEN cell bank) were seeded onto a matrigel-coated 6-well plate, and cultured in a feeder-less medium, ReproFF (trade name, Reprocell Inc.) for culture of stem cells maintained in an undifferentiated state, without using a feeder cell, under conventional conditions: 37° C. and 5% carbon dioxide.
A medium obtained by adding a 20% knock-out serum replacement (Life Technologies Japan Ltd.), 10% Minimum Essential Amino Acids (Life Technologies Japan Ltd.), 2 mM of L-glutamine (Life Technologies Japan Ltd.) and 1 mM of 2-mercaptoethanol to a D-MEM/F12 medium (Dulbecco's Modified Eagle Medium-F12 medium, Sigma-Aldrich Japan) was used as an iPSm(−) medium.
The following growth-promoting agents were added to the iPSm(−) medium, and SOX-17, GATA6, FOXA2, GATA4, HEX, TTR and C/EBPα were expressed in a manner similar to that in Experiment 1.
As the growth-promoting agents, added were bFGF (basic fibroblast growth factor, Wako Pure Chemical Industries, Ltd.), BMP (bone morphogenetic protein)-4 (Wako Pure Chemical Industries, Ltd.), oncostatinM (Wako Pure Chemical Industries, Ltd.), an epidermal growth factor (EGF, Wako Pure Chemical Industries, Ltd.), a nerve growth factor (NGF, R & D Systems, Inc.), TGF-β, (transform growth factor-β, R& D Systems, Inc.), retinoic acid (Sigma-Aldrich Japan) and a hepatic cell growth factor (HGF, Sigma-Aldrich Japan).
RT-PCR to SOX-17, GATA6 and TTR was performed under the following conditions.

[2] = tested on: Human iPS cells (201B7); assay: Induction of differentiation into hepatic progenitor cells by growth-promoting agents (real-time quantitative PCR of AFP and DLK-1); format: cell-based; details: iPS cells transfected with FOXA2, GATA4, HEX, C/EBPα three times every three days, 8th day, n=3, ± standard error, ReproFF lane = 100
Description: Human iPS cells (201B7, RIKEN cell bank) were seeded onto a matrigel-coated 6-well plate, and cultured in a medium, ReproFF in accordance with a conventional method under the following conditions: 37° C. and 5% carbon dioxide. A lipofection reagent, Lipofectamine LTX (registered trade mark, Life Technologies Japan Ltd.) was used to transfect 0.5 μg of expression plasmids of FOXA2, GATA4, HEX and C/EBPα, respectively. […]
The transfection of the transcription factors was repeated three times every three days, and, on the 8th day, RNA was extracted using Isogen (NIPPON GENE CO., LTD.). […] Then, the amount of expressed α-fetoprotein (AFP), which was an indicator of hepatic progenitor cells, was analyzed by the real-time quantitative PCR method using a real-time PCR analysis reagent, Fast SYBR Green Master Mix (trade name, Life Technologies Japan Ltd.). […] The amounts of α-fetoprotein (AFP) and Delta-like (DLK)-1 expressed were quantitatively determined as an indicator of hepatic progenitor cells by employing ribosome-related protein (RLP19) as internal standard (each group, n=3).
The real-time quantitative PCR was performed by using the following primers through a PCR cycle including 30 cycles of 5 seconds at 95° C. and 20 seconds at 60° C.

Molecule	expression of C/EBPα [1]	expression of FOXA2 [1]	expression of GATA4 [1]	expression of GATA6 [1]	expression of HEX [1]	α-fetoprotein/RPL19 ratio (mRNA expression) ([2]; FIG. 3-1)	DLK-1/RPL19 ratio (mRNA expression) ([2]; FIG. 3-2)	expression of SOX-17 [1]
epidermal growth factor (protein, UniProt P01133 23-1207, looked up, Pro-epidermal growth factor, growth factor used as growth-promoting agent (Wako Pure Chemical Industries)) Pro-epidermal growth factor: PQHWSCPEGTLAGNGNSTCVGPAPFLIFSHGNSIFRIDTEGTNYEQLVVDAGVSVIMDFHYNEKRIYWVDLERQLLQRVFLNGSRQERVCNIEKNVSGMAINWINEEVIWSNQQEGIITVTDMKGNNSHILLSALKYPANVAVDPVERFIFWSSEVAGSLYRADLDGVGVKALLETSEKITAVSLDVLDKRLFWIQYNREGSNSLICSCDYDGGSVHISKHPTQHNLFAMSLFGDRIFYSTWKMKTIWIANKHTGKDMVRINLHSSFVPLGELKVVHPLAQPKAEDDTWEPEQKLCKLRKGNCSSTVCGQDLQSHLCMCAEGYALSRDRKYCEDVNECAFWNHGCTLGCKNTPGSYYCTCPVGFVLLPDGKRCHQLVSCPRNVSECSHDCVLTSEGPLCFCPEGSVLERDGKTCSGCSSPDNGGCSQLCVPLSPVSWECDCFPGYDLQLDEKSCAASGPQPFLLFANSQDIRHMHFDGTDYGTLLSQQMGMVYALDHDPVENKIYFAHTALKWIERANMDGSQRERLIEEGVDVPEGLAVDWIGRRFYWTDRGKSLIGRSDLNGKRSKIITKENISQPRGIAVHPMAKRLFWTDTGINPRIESSSLQGLGRLVIASSDLIWPSGITIDFLTDKLYWCDAKQSVIEMANLDGSKRRRLTQNDVGHPFAVAVFEDYVWFSDWAMPSVMRVNKRTGKDRVRLQGSMLKPSSLVVVHPLAKPGADPCLYQNGGCEHICKKRLGTAWCSCREGFMKASDGKTCLALDGHQLLAGGEVDLKNQVTPLDILSKTRVSEDNITESQHMLVAEIMVSDQDDCAPVGCSMYARCISEGEDATCQCLKGFAGDGKLCSDIDECEMGVPVCPPASSKCINTEGGYVCRCSEGYQGDGIHCLDIDECQLGEHSCGENASCTNTEGGYTCMCAGRLSEPGLICPDSTPPPHLREDDHHYSVRNSDSECPLSHDGYCLHDGVCMYIEALDKYACNCVVGYIGERCQYRDLKWWELRHAGHGQQQKVIVVAVCVVVLVMLLLLSLWGAHYYRTQKLLSKNPKNPYEESSRDVRSRRPADTEDGMSSCPQPWFVVIKEHQDLKNGGQPVAGEDGQAADGSMQPTSWRQEPQLCGMGTEQGCWIPVSSDKGSCPQVMERSFHMPSYGTQTLEGGVEKPHSLLSANPLWQQRALDPPHQMELTQ	not observed to be expressed	not observed to be expressed	not observed to be expressed	observed to be expressed	not observed to be expressed	139±13	59±7	–
oncostatin M (protein, UniProt P13725 26-221, looked up, growth factor used as growth-promoting agent (Wako Pure Chemical Industries)) Oncostatin-M: AAIGSCSKEYRVLLGQLQKQTDLMQDTSRLLDPYIRIQGLDVPKLREHCRERPGAFPSEETLRGLGRRGFLQTLNATLGCVLHRLADLEQRLPKAQDLERSGLNIEDLEKLQMARPNILGLRNNIYCMAQLLDNSDTAEPTKAGRGASQPPTPTPASDAFQRKLEGCRFLHGYHRFMHSVGRVFSKWGESPNRSRR	slightly expressed; also recorded: not observed to be expressed	not observed to be expressed	not observed to be expressed	–	not observed to be expressed	–	–	observed to be expressed
